Experimental data as given in patent JP2002506420A.

Key:
[1] = molecular target: ヒトCD3抗原 (human CD3 antigen on the surface of human T cells) (human) (UniProt P07766); assay: competition with 125I-labelled mouse M291 on IL-2-activated human T cells; affinity by the method of Berzofsky and Berkower
[2] = molecular target: FcRII (Fc gamma receptor II on K562 cells) (UniProt P12318); assay: cell-based or functional assay
Sequence of UniProt P12318 (P12318 34-317): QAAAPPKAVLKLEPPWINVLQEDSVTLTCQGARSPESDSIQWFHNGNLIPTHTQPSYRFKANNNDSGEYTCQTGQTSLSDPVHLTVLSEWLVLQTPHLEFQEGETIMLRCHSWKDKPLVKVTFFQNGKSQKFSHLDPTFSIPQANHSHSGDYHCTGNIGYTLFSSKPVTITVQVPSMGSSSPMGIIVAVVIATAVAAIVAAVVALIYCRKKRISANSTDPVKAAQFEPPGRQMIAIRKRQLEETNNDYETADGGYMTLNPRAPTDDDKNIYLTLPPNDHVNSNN

Sequence of UniProt P07766 (P07766 23-207): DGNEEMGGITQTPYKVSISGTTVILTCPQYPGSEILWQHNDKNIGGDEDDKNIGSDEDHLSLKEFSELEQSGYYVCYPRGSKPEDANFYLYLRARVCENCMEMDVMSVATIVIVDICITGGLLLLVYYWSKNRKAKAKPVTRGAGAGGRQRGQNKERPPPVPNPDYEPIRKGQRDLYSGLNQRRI

Ka [1] [M⁻¹] | K562細胞の特異的溶解 (reverse lysis, 51Cr release) [2] [%] | Substance
1.6e+09 |  | ヒト化M291 IgG1 (humanized M291, human IgG1) (from UniProt P01857 1-330) (antibody)
 | < 32 | キメラOKT3 IgG2 (chimeric OKT3, wild-type human IgG2) (from UniProt P01859 1-326) (antibody)
